Data reported in patent EP3783015A1 (Beijing DCTY Biotech Co., Ltd., dated 2021).

Target: T1, ErbB2-Domain4 protein (human, UniProt P04626 1-675)
T1 construct: Made in E. coli BL21(DE3) from pET-28a (NdeI/XhoI), dissolved from inclusion bodies in 8 M urea and purified on a Ni column; also called ErbB2-Domain4-encoded protein
Experiment: indirect ELISA, ErbB2-Domain4 protein coated at 100 ng/well, antibody in serial dilution, A450

- EC50: 100 nM
B1: mouse anti-human ErbB2 monoclonal antibody 10A6 (antibody, mouse IgG1, kappa, V domains shown)
VH: QVTLKESGPGILQPSQTLSLTCSFSGFSLSTSGMGVSWIRQPSGKGLEWLAHIYWDDDKRYNPSLKSRLTISKDSSNKQVFLKFTSVDTADTATYYCAHFAYYNYDGAVDSWGQGTSVTVSS
VL: DIVMSQSPSSLTVSAGEKVSMSCKSSQSLLHSRTRKNYLAWYQQKPGQSPKLLIYWASTRESGVPDRFTGSGSGTDFTLTISSVQAEDLAVYYCKQSYSLYTFGGGTKLEIKR
notes: Mouse IgG1-Kappa, purified from hybridoma supernatant on protein G; also called 10A6 clonal antibody protein
